Experimental data reported in the nanobody polyreactivity screen of Harvey et al. (2022).

Experiment: yeast display, Sf9 membrane polyspecificity reagent, FACS + sequencing; frameworks hold sequencing errors
Summary of the method: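 Nanobodies came from a synthetic yeast display library in Saccharomyces cerevisiae BJ5465, induced with galactose for 36–48 hours and stained for 1 hour at 4 °C with 10% biotinylated, detergent-solubilized Sf9 membrane reagent. Cells were enriched on streptavidin microbeads and then FACS-sorted, with low and high (top ~1%) gates set on anti-HA fluorescence for expression and streptavidin fluorescence for reagent binding. Each polyreactivity label reflects the gate a clone came from. Genes were amplified by colony PCR, sequenced by MiSeq 2 × 250 and filtered by CDR length.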

Question: For “QVQLVESGGGLVQAGGSLRLSCAASARTFGVYAMGWYRQAPGKERELVAAISKSDGSTYYADSVKGRFTISRDNAKITVYLQMNSLKPEDTAVYYCATVTLHQRDTQDDFWGQGTQVTVSS”, which “polyreactivity (PSR sort gate)” value is on record?
Answer: low polyreactivity

Question: With “QVQLVESGGGLVQAGGSLRLSCAASARTFYRYAMGWYRQAPGKERELVAAITRRSGNTYYADSVKGRFTISRDNAKNTVYLQMNSLKPEDTAVYYFNTVYPRRLIFGYWGQGTQVTVSS” as the sequence, how does the “polyreactivity (PSR sort gate)” value read?
Answer: high polyreactivity

Question: For “QVQLVESGGGLVQAGGSLRLSCAASASIFLEYAMGWYRQAPGKERELVAGITISGGSTYYADSVKGRFTISRDNAKNTVYLQMNSLKPEDSAVYYCAKVAPRSSSSLEYYYWGQGTQVTVSS”, which “polyreactivity (PSR sort gate)” value is on record?
Answer: low polyreactivity

Question: With “QVQLVESGGGLVQAGGSLRLSCAASASIFPRNTMGWYRPAPGKERELVAAISRSGGSTYYADSVKGRFTISRDNAKNTVYLQMNSLKPEDTAVYYCAVSGGTSRRYYYWGQGTQVTVSS” as the sequence, how does the “polyreactivity (PSR sort gate)” value read?
Answer: high polyreactivity

Question: For “QVQLVESGGGLVQAGGSLRLSCAASASIFSVYAMGWYRQAPGKERELVAAITRSGARTYYADSVKGRFTISRDNAKNTVYLQMNSLKPDDTAVYYCAADDPGYNQVEYWGQGTQVTVSS”, which “polyreactivity (PSR sort gate)” value is on record?
Answer: high polyreactivity

Question: Which “polyreactivity (PSR sort gate)” value does the source give for “QVQLVESGGGLVQAGGSLRLSCAASASTFRPYAMGWFRQAPGKEREFVASITWRGGGTYYADSVKGRFTISRDNAKNTVYLQMNSLKPEDTAVFSCAAATQVRGNSLPYGYWGQGTQVTVSS” here?
Answer: high polyreactivity

Question: Which “polyreactivity (PSR sort gate)” value does the source give for “QVQLVESGGGLVQAGGSLRLSCAASASTFVSNAMGWYRQAPGKERELVAAISKSGGSTYYADSVKGRFTISRDNAKNTVYLEMNSLKPEDTAVYYCSKYTAISFYGQYDYWGQGTQVTVSS” here?
Answer: high polyreactivity

Question: With “QVQLVESGGGLVQAGGSLRLSCAASATFYYYAMGWSRQAPGKERELVAAISYSGGRTYYADSVKGRFTISRDNAKNTVYLQMNSLKPEDTAVYYCNALYRKTPSYGADDYWGQGTQVTVSS” as the sequence, how does the “polyreactivity (PSR sort gate)” value read?
Answer: high polyreactivity

Question: Which “polyreactivity (PSR sort gate)” value does the source give for “QVQLVESGGGLVQAGGSLRLSCAASAWYAMGWYRQAPGKEREFVAAITFSGSSTYYADSVKGRFTISRDNAKNTVYLQMNSLKPEDTAVYYCNADWWEWGQGTQVTVSS” here?
Answer: low polyreactivity

Question: Which “polyreactivity (PSR sort gate)” value does the source give for “QVQLVESGGGLVQAGGSLRLSCAASGAIFVPYAMGWYRQAPGKERELVAAITYSDGSTYYADSVKGRFTISRDNAKNTVYLQMNSLKPEDTAVYYCAAEWIEFPDPVSWYYYTPYYYWGQGTQVTVSS” here?
Answer: high polyreactivity

Question: For “QVQLVESGGGLVQAGGSLRLSCAASGATFGYYGMGWYRQAHGTERELVAAISTRGDSTYYADSVMGRFTISRDNAKNPVYLQMHSLKPEDPAGYYCAKSRQSSGRVRFDYWGQGTQVTVSS”, which “polyreactivity (PSR sort gate)” value is on record?
Answer: low polyreactivity

Question: Which “polyreactivity (PSR sort gate)” value does the source give for “QVQLVESGGGLVQAGGSLRLSCAASGATFTFYAMGWYRQAPGKERELVATINWSGGSTYYADSVKGRFTISRDNSKYTVYLQMNSMKPEDTAVFYCNAACPFKSVEYWGQGTQVTVSS” here?
Answer: low polyreactivity

Question: Which “polyreactivity (PSR sort gate)” value does the source give for “QVQLVESGGGLVQAGGSLRLSCAASGCIFFQYAMGWYIQAPGKERELVAAISGSGVTTYYADSVKGRFTISRDNAKNTVYLQMNSLKPEDTAVYYCNAALRWKYDWGQGTQVTVSS” here?
Answer: low polyreactivity

Question: For “QVQLVESGGGLVQAGGSLRLSCAASGCIFRYYAKGWYRQPPGKERELVPVISSNGARTSYADSVKGRFTISRDNATYTVYLQMNSLKPEDTAVYYCNARAWSRFPPVGHDDWGQGTQVTVSS”, which “polyreactivity (PSR sort gate)” value is on record?
Answer: high polyreactivity

Question: For “QVQLVESGGGLVQAGGSLRLSCAASGCIFVRYAMGWYRQAPGKERELVAAISRSGGSTSYADSVKGRFTISRDNAKNTVYLQMNSLKPEDTAVYYCAVVRGGRGYPGYDYWGQGTQVTVSS”, which “polyreactivity (PSR sort gate)” value is on record?
Answer: low polyreactivity

Question: With “QVQLVESGGGLVQAGGSLRLSCAASGCTFPLYAMGWYRPAPGKERELVAAITSGGGNTYYADSVKGRFTISRDNAKNTVYLQMNSLKPEDTAVYYCAAVGGYKSYYSYEYDYWGQGTQVTVSS” as the sequence, how does the “polyreactivity (PSR sort gate)” value read?
Answer: low polyreactivity

Question: With “QVQLVESGGGLVQAGGSLRLSCAASGCTFQTYAMGWYRQAPGKERELVAGITAGGSTNYADSVKGRFSISRDNAKNTVYLQMNSLKPEDTAVYYCAVRQISQTSDHRLQYDYWGQGTQVNVSS” as the sequence, how does the “polyreactivity (PSR sort gate)” value read?
Answer: low polyreactivity

Question: For “QVQLVESGGGLVQAGGSLRLSCAASGFAFSYYAMGWSRQAPGKEREFVASIDWSGGSTYYADSVKGRFTISRDNAKNTVYLQMNSLKPEDTAVYYCAAELDYFPGYDYWGQGTQVTVSS”, which “polyreactivity (PSR sort gate)” value is on record?
Answer: low polyreactivity

Question: With “QVQLVESGGGLVQAGGSLRLSCAASGFAFSYYAMGWYIPAPGKEREFVASIDWSGGSTYYADSVKGRFTISRDNAKNTVYLQMNSLKPEDTAVYYCAAELDYFPGYDYWGQGTQVTVSS” as the sequence, how does the “polyreactivity (PSR sort gate)” value read?
Answer: low polyreactivity

Question: Which “polyreactivity (PSR sort gate)” value does the source give for “QVQLVESGGGLVQAGGSLRLSCAASGFAFSYYAMGWYRQAPGKEREFVASIDWSGGSTYYADSVKGRFTISRDIAKTTVYLQMNRLKPEDTAVYYCAAELDYFPGYDYWGQGTQVTVSS” here?
Answer: low polyreactivity

Question: Which “polyreactivity (PSR sort gate)” value does the source give for “QVQLVESGGGLVQAGGSLRLSCAASGFICAQNAMGWYRQAPGKERELVADISGRGGRTYYADSVKGRFTISRDNAKNTVYLQMNSLKPEDTAVYYCAKDTYLQIYQYGYWGQGTQVTVSS” here?
Answer: high polyreactivity

Question: Which “polyreactivity (PSR sort gate)” value does the source give for “QVQLVESGGGLVQAGGSLRLSCAASGFIDAYTMGWYRQAPWKERELVAAITWSGGRTYYADSVKGRFTISRDNAKNTVYLQMNSLKPEDTAVYYCAKDVTPYSPDDDYWGQGTQVTVSS” here?
Answer: low polyreactivity

Question: With “QVQLVESGGGLVQAGGSLRLSCAASGFIDVSYAMGWYRQAPGKERELVAAIDRIGGITYYADSVKGRFTISRDNAKNTVYLQMNSLKPEDTAVYYCAAAARYATVRVGREYYWGQGTQVTVSS” as the sequence, how does the “polyreactivity (PSR sort gate)” value read?
Answer: low polyreactivity

Question: Which “polyreactivity (PSR sort gate)” value does the source give for “QVQLVESGGGLVQAGGSLRLSCAASGFIFAAYAMGWYRQAPGKERELVAAISYSGDRTYYADSVKGRFTISRDNAKNTVYLQMNSLKPEDTAVYYCDADARAYTYDYWGQGTQVTVSS” here?
Answer: high polyreactivity

Question: Which “polyreactivity (PSR sort gate)” value does the source give for “QVQLVESGGGLVQAGGSLRLSCAASGFIFADYAMGWYRQAPGKERELVAAISASGGITYYADSVKGRFTISRDNAKNTVYLQMNSLKPEDTAVYYCNAVTGKWNWRKYDYWGQGTQVTVSS” here?
Answer: high polyreactivity

Question: With “QVQLVESGGGLVQAGGSLRLSCAASGFIFAFYAMGWYRQAPGKERELVAAISLSGGSTYYADSVKGRFTISRDNAKITVYLQMNSLKPDDTAVYYCAASRYKFYYWGQGTQVTVSS” as the sequence, how does the “polyreactivity (PSR sort gate)” value read?
Answer: high polyreactivity

Question: For “QVQLVESGGGLVQAGGSLRLSCAASGFIFAGTAMGWYRQAPGKEWELVAAITRSGTNTYYADSVKGRFTISRDHAKNTVFLQMNSLKPEDTAVYYCNATVRYRYPYGYWGQGTQVTVSS”, which “polyreactivity (PSR sort gate)” value is on record?
Answer: high polyreactivity

Question: For “QVQLVESGGGLVQAGGSLRLSCAASGFIFAGYAMGWYRQAPGKERELVAGITRNGGSTYYADSVKGRFTISRDNAKITVYFQMYSLNPEDTAVYYCAATRYSFGPRRVDYWRQGTQVTVSS”, which “polyreactivity (PSR sort gate)” value is on record?
Answer: high polyreactivity

Question: With “QVQLVESGGGLVQAGGSLRLSCAASGFIFAGYHMAWYRQAPGKERELVAAISSSGANTYYADSVKGRFTISRDNAKNTVYLQMNSLKPEYSAVYYCAALYHWTYDYWGQGTQVTVSS” as the sequence, how does the “polyreactivity (PSR sort gate)” value read?
Answer: low polyreactivity

Question: For “QVQLVESGGGLVQAGGSLRLSCAASGFIFAGYTMGWYRQAPGKERELVAAINSGGSTKYADSVKGRFTISRDNAKNTVYLHMNSLKPEDTAVYYCNADYGWYFLFDYWGQGTQVTVSS”, which “polyreactivity (PSR sort gate)” value is on record?
Answer: low polyreactivity

Question: Which “polyreactivity (PSR sort gate)” value does the source give for “QVQLVESGGGLVQAGGSLRLSCAASGFIFAHNAMGWYRQAPGKVRELVAAISWGSGSTYYADSVKGRFTISRDNAKITVYLQMNSLKPEDTAVSYCAARAVRYYAWVRGGWTSFDYWGQGTQVTVSS” here?
Answer: high polyreactivity

Question: Which “polyreactivity (PSR sort gate)” value does the source give for “QVQLVESGGGLVQAGGSLRLSCAASGFIFAIYAMGWYRQAPGKERELVAAITSSSSTYADSVKGRFTISRDNAKNTVYLQMNSLKPEDTAVYYCAADTYSYRYSNDYWGQGTQVTVSS” here?
Answer: low polyreactivity

Question: With “QVQLVESGGGLVQAGGSLRLSCAASGFIFALYARGWYRQAPGTERELVAAITSSSSTYAASVKGRFTISRDNAKNTVYLQMNSLKPEDTAVYYCAADTYSYRYSNDYWGQGTQVTVSS” as the sequence, how does the “polyreactivity (PSR sort gate)” value read?
Answer: low polyreactivity

Question: For “QVQLVESGGGLVQAGGSLRLSCAASGFIFARNTMGWYRQAPGKERELVAAITKSGGSTYYADSVKGRFTISRDNAKNTVYLQMNSLKPEDTAVYYCAARTYTLRGVYFSGYNYWGQGTQVTVSS”, which “polyreactivity (PSR sort gate)” value is on record?
Answer: low polyreactivity

Question: Which “polyreactivity (PSR sort gate)” value does the source give for “QVQLVESGGGLVQAGGSLRLSCAASGFIFARYAMGWYRQAPGKERELVAAISSGGRTYFADSVKGRFTISRDNAKNTVYLQMNSLKPEDTAVYYCAKRPTNGYGTFDYWGQGTQVTVSS” here?
Answer: high polyreactivity

Question: With “QVQLVESGGGLVQAGGSLRLSCAASGFIFASNAMGWYRQAPGKERELVAAINSSGGSTYYADSVKGRFTISRDNAKNTVYLQMNSLKPEDTAVYYCAADVIGDLRWYRDEYWGHGTQVTVSS” as the sequence, how does the “polyreactivity (PSR sort gate)” value read?
Answer: low polyreactivity

Question: For “QVQLVESGGGLVQAGGSLRLSCAASGFIFASYAMGWYRQAPGKERELVAAISWRGGSTYYADSVKGRFTISRDNAKNTVYLQMNSLKPEDTAVYYCNAYVYVGTGRGYDTLDYWGQGTQVTVSS”, which “polyreactivity (PSR sort gate)” value is on record?
Answer: low polyreactivity

Question: Which “polyreactivity (PSR sort gate)” value does the source give for “QVQLVESGGGLVQAGGSLRLSCAASGFIFATYTMGWYRQAPGKERELVAAITWRGGSTYYADTVKGRFPISRDNAKNTVYLQMNSLKPEDTAVYYCAAQDVNSYRYVEDVYCGQGTQVTVSS” here?
Answer: low polyreactivity

Question: With “QVQLVESGGGLVQAGGSLRLSCAASGFIFAWNAMGWYRQAPGKERELVASISSGGGSTYYADSVKGRFTISRDNAKNTVYLQMNSLKPEDTAVYYCAASYAYLRGLHYYKYDSWGQGTQVTVSS” as the sequence, how does the “polyreactivity (PSR sort gate)” value read?
Answer: low polyreactivity

Question: With “QVQLVESGGGLVQAGGSLRLSCAASGFIFAWYAMGWYRQAPGKERELVARISRGGSTYYADSVKGRFTISRDNAKNTVYLHMNSLKPEYTAVYYCTAGAAYTYTRYDYWGQGTQVTVSS” as the sequence, how does the “polyreactivity (PSR sort gate)” value read?
Answer: high polyreactivity

Question: Which “polyreactivity (PSR sort gate)” value does the source give for “QVQLVESGGGLVQAGGSLRLSCAASGFIFAWYTMGWYRQAPGKERELVAAISANGGNTYYADSVKGRFTISRDNAKNTVYLQMNSLKPEDTAVYYCAALYKYSSSFDYWGQGTQVTVSS” here?
Answer: high polyreactivity

Question: With “QVQLVESGGGLVQAGGSLRLSCAASGFIFAYNAMGWYRQAPGKERELDAAISRSGGSTRYADSVKGRFTISRDNAKNTVYLQMNSLKPEDTAVYYCNVSRYGYGVGRGLYIYDYWGQGTQVTVSS” as the sequence, how does the “polyreactivity (PSR sort gate)” value read?
Answer: high polyreactivity

Question: Which “polyreactivity (PSR sort gate)” value does the source give for “QVQLVESGGGLVQAGGSLRLSCAASGFIFAYNAMGWYRQAPGKERELVAAISWSGGSTYYADSVKGRFTISRDNAKNTVYLQMNSLKPEYTAVYYCNAKYLGRRWDGNYNYWGQGTQVTVSS” here?
Answer: high polyreactivity
